Patent publication US20100111941A1, “METHODS FOR TREATING CANCER” (priority 2006, published 2010)

How the values were obtained:
[1] = system: HCT116 tumor xenografts (human colorectal cancer cells); conditions: for tumor weight reduced by, compared to vehicle control: day 14, rNAPc2/pro 300 μg/kg daily IP, 5-FU 10 mg/kg every-other-day IP, AVASTIN 0.5 mg/kg twice-weekly IP, 14 days, 6 mice/group
Experimental: To determine the effect of rNAPc2/pro in combination with 5-fluorouracil (5-FU) in colorectal cancer, a murine xenograft colorectal tumor model was used. Human colorectal cancer cells (HCT116) were cultured in DMEM medium supplemented with 10% fetal bovine serum (FBS), harvested at log growth phase, enumerated and resuspended in HBSS buffer. Eight to ten week old female nude mice (NU/NU) were inoculated subcutaneously with 1×10^7 cells/mouse in a volume of 100 μl. Tumors were allowed to develop to an average size of 50 to 100 mm^3 before the treatment started (defined as day 0). HCT116 tumor xenograft-bearing mice were randomized into various treatment conditions and the treatment regimens lasted for 14 days.
The mice were treated as follows (6 mice/group):
2)rNAPc2/pro (300 μg/kg, daily IP injection for 14 days);
3) LOVENOX® (1.5 mg/kg, daily IP injection for 14 days);
4) 5-FU (10 mg/kg, every-other-day IP injection for 14 days);
5) AVASTIN® (0.5 mg/kg, twice-weekly IP injection for 14 days);
10) LOVENOX®+AVASTIN®; and
The mice were monitored every-other-day for body weight, signs of morbidity (i.e., hemorrhage) and mortality. On day 14, mice were extirpated for HCT116 tumor xenografts and the tumors were weighed and measured. Tumor size was calculated as follows: tumor volume (size)=(length)×(width^2)/2 (mm^3).

[2] = system: Human colorectal cancer cells (HCT116); assay: murine colorectal cancer-hepatic metastasis mouse model (HCT116); type: in vivo, nude mice (NU/NU); conditions: for Hepatic metastasis-free events: rNAPc2/pro 300 μg/kg daily IP for 28 days, CPT-11 100 mg/kg once-weekly IP for 4 weeks, livers removed day 42, 8 mice/group
Experimental: To determine the effect of rNAPc2/pro in treating hepatic tumor metastasis, a murine colorectal cancer-hepatic metastasis mouse model was used.
(§1) The mice were treated as follows (8 mice/group):
2) HCT116/vehicle control;
3) HCT116/rNAPc2/pro (300 μg/kg, daily IP injection for 28 days);
4) HCT116/CPT-11 (100 mg/kg, once-weekly IP injection for 4 weeks); and
On day 42, the livers were surgically removed, weighed and the number of liver surface metastases were counted in a blinded fashion. The other internal organs were examined for signs of hemorrhage. […] In some of the mice, no hepatic metastases were observed (Table 2).

[3] = system: lung carcinoma tumors and melanoma tumors; conditions: mouse models; Hembrough et al., Cancer Res. 63:2997-3000 (2003); cited from earlier work
[4] = molecular target: T1, Factor Xa (Homo sapiens, UniProt P00742); conditions: selective = at least 10-fold higher potency than on related enzymes; cited from earlier work
T1 construct: made in house

[5] = system: Murine colorectal cancer cells (CT26); assay: murine colorectal cancer-pulmonary metastasis mouse model (CT26); type: in vivo, BALB/c mice; conditions: for Number of mice with no observable lung surface metastases: 8 mice/group
Experimental: To determine the effect of rNAPc2/pro in treating pulmonary tumor metastasis, a murine colorectal cancer-pulmonary metastasis mouse model was used. […] Nine to eleven week old female syngenic BALB/c mice were inoculated via tail vein injection with 1×10^6 cells/mouse in a volume of 100 μl (defined as day 0).
as §1
3) CT26/rNAPc2/pro (10 μg/kg/day);
4) CT26/rNAPc2/pro (30 μg/kg/day);
5) CT26/rNAPc2/pro (100 μg/kg/day);
6) CT26/rNAPc2/pro (300 μg/kg/day);
7) CT26/rNAPc2/pro (1 mg/kg/day);
8) CT26/rNAPc2/pro (2.5 mg/kg/day); and
9) CT26/LOVENOX® (1.5 mg/kg/day, IP injection).
On day 11, the lungs were surgically removed, weighed and the number of lung surface metastases were counted in a blinded fashion. The other internal organs were examined for signs of hemorrhage. […] In some of the mice, no lung surface metastases were observed (Table 1). rNAPc2/pro was well-tolerated up to 2.5 mg/kg/day in mice with no hemorrhage-related mortality. […] No significant difference in animal body weight was observed between all experimental groups.

[6] = molecular target: T2, fVIIa/TF complex (Homo sapiens, UniProt P08709+P13726); conditions: when fXa, or a catalytically active or inactive derivative thereof, is present; cited from earlier work
T2 construct: Lyophilized, purified, recombinant human fVlla is reconstituted in HBS

[7] = system: intestinal adenomas and adenocarcinomas; assay: murine spontaneous intestinal neoplasia mouse model (Min mouse)
Experimental: To determine the effect of rNAPc2/pro in treating intestinal adenomas and adenocarcinomas, a murine spontaneous intestinal neoplasia mouse model was used: the Min mouse (The Jackson Laboratory, Bar Harbor, Me., USA).
Four to five week old Apc^Min/+ or syngenic wild-type control (age- and sex-matched) were randomized into various treatment conditions and the treatment regimens lasted for 10 to 11 weeks.
The mice were treated as follows:
1) Wild-type/vehicle control (3 mice);
2) Wild-type/rNAPc2/pro (100 μg/kg, daily IP injection) (3 mice);
3) Apc^Min/+/vehicle control (6 mice);
4) Apc^Min/+/rNAPc2/pro (6 mice); and
5) Apc^Min/+/LOVENOX® (500 μg/kg, daily IP injection) (6 mice).
The mice were monitored every-other-day for body weight, signs of morbidity (i.e. hemorrhage) and mortality. On week 16, the intestines were removed, separated into proximal, middle and distal small intestine and colon, formed into “Swiss rolls” and processed for analysis. Mice were injected with 4 mg/mouse BrdU 2 h prior to harvest.

[8] = system: angiogenesis; conditions: Hembrough et al., Cancer Res. 63:2997-3000 (2003); cited from earlier work

T2 sequence (P08709 213-466 limits assumed): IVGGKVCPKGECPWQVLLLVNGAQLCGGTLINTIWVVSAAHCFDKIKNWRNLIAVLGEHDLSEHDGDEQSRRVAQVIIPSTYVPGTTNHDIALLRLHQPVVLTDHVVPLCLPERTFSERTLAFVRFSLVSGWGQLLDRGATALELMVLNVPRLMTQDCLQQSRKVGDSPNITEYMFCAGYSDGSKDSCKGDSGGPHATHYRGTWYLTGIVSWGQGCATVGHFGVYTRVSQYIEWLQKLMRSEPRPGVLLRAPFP
T2 sequence (P08709 61-212 limits assumed): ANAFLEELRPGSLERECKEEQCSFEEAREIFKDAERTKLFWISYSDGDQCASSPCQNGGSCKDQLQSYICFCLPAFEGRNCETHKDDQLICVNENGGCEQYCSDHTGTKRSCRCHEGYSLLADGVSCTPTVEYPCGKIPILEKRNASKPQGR
T2 sequence (P13726 33-295): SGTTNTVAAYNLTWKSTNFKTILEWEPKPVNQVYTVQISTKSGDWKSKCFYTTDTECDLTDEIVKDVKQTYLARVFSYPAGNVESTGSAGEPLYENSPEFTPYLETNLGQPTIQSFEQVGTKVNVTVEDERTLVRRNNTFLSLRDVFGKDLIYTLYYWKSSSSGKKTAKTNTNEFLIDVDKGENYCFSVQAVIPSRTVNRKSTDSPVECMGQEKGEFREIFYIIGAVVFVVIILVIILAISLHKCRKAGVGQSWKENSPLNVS
T2 sequence (P00742 235-488 partner limits assumed): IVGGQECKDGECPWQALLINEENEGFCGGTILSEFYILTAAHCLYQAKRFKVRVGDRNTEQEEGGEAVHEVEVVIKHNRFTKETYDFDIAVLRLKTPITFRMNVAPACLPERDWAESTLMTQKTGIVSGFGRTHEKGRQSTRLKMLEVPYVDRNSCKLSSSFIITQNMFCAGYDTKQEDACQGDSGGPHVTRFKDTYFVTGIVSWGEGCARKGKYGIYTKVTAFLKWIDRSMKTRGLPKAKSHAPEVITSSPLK
T2 sequence (P00742 41-179 partner limits assumed): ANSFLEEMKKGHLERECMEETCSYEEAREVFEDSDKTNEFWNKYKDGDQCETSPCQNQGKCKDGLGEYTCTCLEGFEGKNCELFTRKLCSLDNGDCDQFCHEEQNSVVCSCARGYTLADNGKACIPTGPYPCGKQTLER
T1 sequence (P00742 235-488 limits assumed): as the sequence (P00742 235-488 partner limits assumed) above
T1 sequence (P00742 41-179 limits assumed): as the sequence (P00742 41-179 partner limits assumed) above

O=c1[nH]cc(F)c(=O)[nH]1 [5-FU, 5-fluorouracil, reference compound]
tumor weight reduced by, compared to vehicle control [1]: 41%

CCc1c2c(nc3ccc(OC(=O)N4CCC(N5CCCCC5)CC4)cc13)-c1cc3c(c(=O)n1C2)COC(=O)[C@]3(O)CC [CPT-11, irinotecan, reference compound]
Hepatic metastasis-free events [2]: 0%

AVASTIN®: anti-VEGF antibody bevacizumab (Genentech) [reference compound]
tumor weight reduced by, compared to vehicle control [1]: 63%

TFPI: reported with rNAPc2 by Hembrough et al. to decrease tumor growth in mouse models [reference compound]
growth of lung carcinoma tumors and melanoma tumors [3]: allegedly decrease the growth

B1: NAP5: 77-amino acid NAP protein (SEQ ID NO: 1) originally isolated from the hookworm Ancylostoma caninum (protein, listed as Ancylostoma caninum)
chain: KAYPECGENEWLDDCGTQKPCEAKCNEEPPEEEDPICRSRGCLLPPACVCKDGFYRDTVIGDCVREEECDQHEIIHV
selective inhibition of Factor Xa [4]: selective inhibition of Factor Xa

B2: NAP6: 75-amino acid NAP protein (SEQ ID NO: 2) originally isolated from the hookworm Ancylostoma caninum (protein, listed as Ancylostoma caninum)
chain: LAYPECGENEWLDVCGTKKPCEAKCSEEEEEDPICRSFSCPGPAACVCEDGFYRDTVIGDCVKEEECDQHEIIHV
selective inhibition of Factor Xa [4]: selective inhibition of Factor Xa

B3: rNAPc2/pro: recombinant protein having the amino acid sequence of rNAPc2 modified to add a proline residue to the C-terminus (SEQ ID NO: 4) (protein, listed as Ancylostoma caninum)
chain: KATMQCGENEKYDSCGSKECDKKCKYDGVEEEDDEEPNVPCLVRVCHQDCVCEEGFYRNKDDKCVSAEDCELDNMDFIYPGTRNP
tumor weight reduced by, compared to vehicle control [1]: 31% | tolerability (hemorrhage or other adverse effects) ([1]; doses and dosing regimens of rNAPc2/pro used in the murine model of colorectal cancer): well tolerated by the recipient mice without major complications of hemorrhage or other adverse effects | Number of mice with no observable lung surface metastases ([5]; 10 μg/kg/day, day 11): 1 | Number of mice with no observable lung surface metastases ([5]; 30 μg/kg/day, day 11): 0 | Number of mice with no observable lung surface metastases ([5]; 100 μg/kg/day, day 11): 1 | Number of mice with no observable lung surface metastases ([5]; 300 μg/kg/day, day 11): 1 | Number of mice with no observable lung surface metastases ([5]; 1 mg/kg/day, day 11): 0 | local hemorrhage in internal organs ([5]; 2.5 mg/kg rNAPc2/pro, 1.5 mg/kg LOVENOX, some of the mice): some local hemorrhage was noticed in internal organs | Number of mice with no observable lung surface metastases ([5]; 2.5 mg/kg/day, day 11): 1 | number of lung surface metastases ([5]; compared to saline control mice, dose-dependent (10 μg/kg/day to 2.5 mg/kg/day), day 11, FIG. 8): reduced the number of lung surface metastases | lung mass ([5]; compared to saline control mice, dose-dependent, day 11, FIG. 9): reduced lung mass | dose well-tolerated with no hemorrhage-related mortality ([5]; mice, 11 days of treatment): up to 2.5 mg/kg/day | selective inhibition of the fVIIa/TF complex [6]: selective inhibition of the fVIIa/TF complex | number of liver surface metastases ([2]; 300 μg/kg daily IP for 28 days, compared to vehicle control mice, day 42, FIG. 10): reduced the number of liver surface metastases | liver mass ([2]; 300 μg/kg daily IP for 28 days, compared to vehicle control mice, day 42, FIG. 11): reduced liver mass | Hepatic metastasis-free events [2]: 0% | effect with CPT-11 in inhibiting hepatic metastases ([2]; rNAPc2/pro 300 μg/kg daily IP in combination with CPT-11 100 mg/kg once-weekly IP): synergistic effect

B4: rNAPc2: recombinant protein of the NAP family, single chain, non-glycosylated 85 amino acid protein (SEQ ID NO: 3) (protein, listed as Ancylostoma caninum)
chain: KATMQCGENEKYDSCGSKECDKKCKYDGVEEEDDEEPNVPCLVRVCHQDCVCEEGFYRNKDDKCVSAEDCELDNMDFIYPGTRN
growth of lung carcinoma tumors and melanoma tumors [3]: allegedly decrease the growth | formation of intestinal adenomas and adenocarcinomas ([7]; Apc^Min/+ mice, 100 μg/kg daily IP, long-term administration (10 to 11 weeks), analysis on week 16): suppressed formation of intestinal adenomas and adenocarcinomas | tolerability (major hemorrhage or other adverse effects) ([7]; dosing regimens used in these studies, recipient mice): well-tolerated up to a three month period | inhibition of angiogenesis [8]: potent inhibitor of angiogenesis | selective inhibition of the fVIIa/TF complex [6]: selective inhibition of the fVIIa/TF complex
